The record followed here is patent US20200399344A1.

The target in test [1] is hCD2 expressed on CHO-K1/hCD2 cells (human) (UniProt P06729). Nature of the test: flow cytometry, isotype control stain of Cho-K1-Luc hCD2 clone 4; unstained cells 362.
The target in test [2] is mCD28 expressed on CHO-K1/mCD28 cells (mouse) (UniProt P31041). Nature of the test: flow cytometry, isotype control stain (sample Chok1-IsotypeCD28); unstained cells 286. For orientation: Flow cytometry measures light scatter and fluorescence of single cells or particles in a stream.
Test [3] deals with m2B4 expressed on CHO-K1/m2B4 cells (mouse) (UniProt Q07763). Nature of the test: flow cytometry, isotype control stain of Cho-K1-NFkB-Luc-m2B4 clone C2; unstained cells 2.00.
The target in test [4] is hCD28 expressed on CHO-K1/hCD28 cells (human) (UniProt P10747). Nature of the test: flow cytometry, isotype control stain of CHO-K1/hCD28 cells (table row 1); unstained cells 130.
Sequence of hCD28 expressed on CHO-K1/hCD28 cells (human) (P10747 19-220): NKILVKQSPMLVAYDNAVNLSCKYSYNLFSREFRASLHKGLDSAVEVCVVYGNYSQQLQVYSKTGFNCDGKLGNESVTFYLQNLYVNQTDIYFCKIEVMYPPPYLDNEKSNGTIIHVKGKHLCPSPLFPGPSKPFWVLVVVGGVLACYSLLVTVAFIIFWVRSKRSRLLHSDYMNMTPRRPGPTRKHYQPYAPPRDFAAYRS

Sequence of mCD28 expressed on CHO-K1/mCD28 cells (mouse) (P31041 20-218): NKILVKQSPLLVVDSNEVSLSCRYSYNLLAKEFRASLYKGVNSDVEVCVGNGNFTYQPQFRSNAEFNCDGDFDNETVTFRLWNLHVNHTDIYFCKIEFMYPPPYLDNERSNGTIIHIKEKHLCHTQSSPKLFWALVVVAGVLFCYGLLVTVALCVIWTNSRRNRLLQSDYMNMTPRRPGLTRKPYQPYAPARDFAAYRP
Sequence of hCD2 expressed on CHO-K1/hCD2 cells (human) (P06729 25-351): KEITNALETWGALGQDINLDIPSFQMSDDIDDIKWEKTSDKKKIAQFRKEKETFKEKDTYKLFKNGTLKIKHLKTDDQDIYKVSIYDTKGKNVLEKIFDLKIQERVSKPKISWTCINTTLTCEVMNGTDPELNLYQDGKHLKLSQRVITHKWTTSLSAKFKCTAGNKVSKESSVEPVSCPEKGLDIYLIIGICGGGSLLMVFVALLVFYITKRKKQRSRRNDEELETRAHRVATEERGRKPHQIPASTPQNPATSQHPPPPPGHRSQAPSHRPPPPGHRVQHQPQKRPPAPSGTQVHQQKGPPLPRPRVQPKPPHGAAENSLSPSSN
Sequence of m2B4 expressed on CHO-K1/m2B4 cells (mouse) (Q07763 20-397): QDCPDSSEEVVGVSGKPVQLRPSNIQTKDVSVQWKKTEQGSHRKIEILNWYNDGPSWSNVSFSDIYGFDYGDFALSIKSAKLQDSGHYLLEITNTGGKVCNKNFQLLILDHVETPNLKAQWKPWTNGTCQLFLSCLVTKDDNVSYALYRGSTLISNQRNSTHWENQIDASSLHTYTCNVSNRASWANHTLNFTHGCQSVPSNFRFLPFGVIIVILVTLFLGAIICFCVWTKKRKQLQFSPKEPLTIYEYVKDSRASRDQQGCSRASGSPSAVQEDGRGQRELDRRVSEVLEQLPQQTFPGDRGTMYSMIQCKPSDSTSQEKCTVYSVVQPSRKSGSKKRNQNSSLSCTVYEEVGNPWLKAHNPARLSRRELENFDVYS

isotype control antibody: the Geometric Mean : PE-A is 1760 in test [1], 678 in test [2], 178 in test [3] and 589 in test [4].
